Measurements: patent US8710017B2, “Human and mouse targeting peptides identified by phage display” (priority 2000, dated 2014)
Ends that are not written are not given here.

What was measured:
GST-β5 integrin = target: T1, GST-β5 integrin (Homo sapiens, UniProt P18084); assay: Annexin V binding to GST-β5 cytoplasmic domain (ELISA), competition with VISY peptide
T1 construct: Plates were coated with GST fusion proteins of the cytoplasmic domains of various integrins and Annexin V was added to the plates
T1 sequence (P18084 743-799 limits assumed): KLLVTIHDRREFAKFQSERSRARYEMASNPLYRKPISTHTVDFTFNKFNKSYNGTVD
Procedure: (§1) Competitive binding assays were performed to examine the binding of Annexin V to β5 integrin and the effect of the VISY peptide. Plates were coated with GST fusion proteins of the cytoplasmic domains of various integrins and Annexin V was added to the plates. Binding of Annexin V was determined using anti-Annexin V antibodies. […] Calcium was used because Annexin V activity has been reported to be modulated by calcium. Binding of Annexin V to GST-β5 was blocked by addition of the VISY peptide (FIG. 20A).
A reciprocal study was performed, using Annexin V to coat plates and adding GST fusion proteins of integrin cytoplasmic domains. Binding was assessed using anti-GST fusion protein antibodies. […] In some studies, calcium ion appeared to interfere with the binding interaction between GST-β5 and Annexin V, with decreased binding observed in the presence of calcium (not shown).

GST-β1 integrin = GST-β1 integrin (Homo sapiens, UniProt P05556); assay: Annexin V binding to GST-β1 cytoplasmic domain (ELISA); conditions: FIG. 20A
Procedure: as §1

GST-β3 integrin = target: T2, GST-β3 integrin (Homo sapiens, UniProt P05106); assay: Annexin V binding to GST-β3 cytoplasmic domain (ELISA); conditions: FIG. 20A
T2 construct: recombinant fusion proteins containing β3 or β5 cytoplasmic domains
T2 sequence (P05106 742-788 limits assumed): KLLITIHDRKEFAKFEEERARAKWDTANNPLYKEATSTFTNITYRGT
Procedure: as §1

HUVEC cells = assay: Apoptosis assay (propidium iodide staining, subdiploid population); assay type: cell-based, human; conditions: 15 μM, 4 hours, FIG. 17
Procedure: FIG. 17. Penetratin peptide chimera binding to the β5 cytoplasmic domain induces programmed cell death. 10^6 HUVEC cells were harvested in complete media and 15 μM penetratin peptide chimeras were added to the cells.
Approximately 1×10^6 cells were harvested in complete media and 15 μM of peptide added for 4, 8, or 12 h. The cells were then washed in PBS and resuspended in 0.5 ml propidium iodide solution (50 μg/ml PI, 0.1% Triton X-100, 0.1% sodium citrate). After a 24-h incubation at 4° C., cells were counted with a XL Coulter (Coulter Corporation) with a 488-nm laser; 12,000 cells were counted for each histogram, and cell cycle distributions were analyzed with Multicycle program.
Approximately 1×10^6 cells were harvested in complete medium, and 15 μM of peptide was added for 4, 8, or 12 hours. The cells were then washed in PBS and resuspended in 0.5 ml propidium iodide solution (50 μg/ml PI, 0.1% Triton X-100, 0.1% sodium citrate). After a 24-h incubation at 4° C., the cells were counted with an XL Coulter (Coulter Corporation) with a 488 nm laser; 12,000 cells were counted for each histogram, and cell cycle distributions were analyzed with the Multicycle program.

HUVEC = assay: Apoptosis by chromatin fragmentation (agarose gel) in HUVEC; assay type: cell-based, human; conditions: 15 μM, 2-4 hours, FIG. 21
Procedure: 10^6 HUVEC were treated with 15 μM of VISY antennapedia (penetratin) chimera or 15 μM of antennapedia peptide (pentratin) alone for 2-4 hours and chromatin fragmentation was analyzed by electrophoresis in an agarose gel.

[1] = target: T3, β5 integrin cytoplasmic domain (Homo sapiens, UniProt P18084); assay: Binding of Fyn-phosphorylated phage to β5 cytoplasmic domain
T3 construct: the screenings involving the β5 cytoplasmic domain fusion protein
T3 sequence (P18084 743-799 limits assumed): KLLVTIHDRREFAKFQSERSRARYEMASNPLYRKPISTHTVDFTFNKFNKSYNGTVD
Procedure: Phosphorylation of peptide libraries with src family protein kinases (Fyn, c-Src, Lyn, and Syc) and serine/threonine kinases such as a MAP kinase were performed as described previously (Schmitz et al., 1996; Dente et al., 1997; Gram et al., 1997). Briefly, phage particles were collected from culture supernatants by double precipitation with 20% polyethylene glycol 8000 in 2.5 M NaCl. Particles were dissolved at 10^12 particles/ml. Purified phage (10 μl) were incubated for 3 hours at room temperature with different concentrations (35 to 3,500 units) of protein kinases in a reaction buffer volume of 50 μl. The reaction mixtures were transferred to tubes containing 10 μg of agarose-conjugated anti-P-Tyr, anti-P-Ser, or anti-P-Thr monoclonal antibodies to select phage displaying phosphorylated peptides. […] Phosphorylated peptides binding to β3 and β5 cytoplasmic domains were analyzed as described in the previous section.
Randomly selected clones from rounds III and IV were sequenced from a X4YX4 phosphorylated library with Fyn. […] The ratio of binding to β3 or β5 was calculated by dividing the number of β3 or β5 colonies by GST or BSA colonies found after panning. The ratio of binding to β3 or β5 with phosphorylated phage by Fyn versus unphosphorylated phage was calculated by dividing the number of colonies found after the panning. […]

[2] = target: T4, β3 integrin cytoplasmic domain (Homo sapiens, UniProt P05106); assay: Phage binding to immobilized GST-β3cyto
T4 construct: recombinant fusion proteins containing β3 or β5 cytoplasmic domains
T4 sequence (P05106 742-788 limits assumed): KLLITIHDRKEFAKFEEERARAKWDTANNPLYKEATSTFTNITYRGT
Procedure: FIG. 9. Binding of β3 cytoplasmic domain-selected phage to immobilized proteins. GST fusion proteins or GST alone were coated on microtiter wells at 10 μg/ml and used to bind phage expressing endostatin targeting peptides. […] The data represent the mean colony counts from triplicate wells, with standard error of less than 10% of the mean.
β3 and β5 cytoplasmic domain-binding peptides were isolated by screening multiple phage libraries with recombinant GST fusion proteins that contained either GST-β3cyto or GST-β5cyto coated onto microtiter wells. Immobilized GST was used as a negative control for enrichment during the panning of each cytoplasmic domain. Phage were sequenced from randomly selected clones after three rounds of panning as disclosed elsewhere (Koivunen et al., 1995; Pasqualini et al., 1995). Distinct sequences were isolated that interacted specifically with the β3 or with the β5 cytoplasmic domains (Table 9). Randomly selected clones from panning rounds II and III were sequenced. […] The ratios were calculated by dividing the number of colonies recovered from β3-GST-coated wells and those recovered from GST or BSA.
The specificity of the interaction with β3 or β5 cytoplasmic domains was determined by calculating the ratios between the number of phage bound to the cytoplasmic domain containing-fusion proteins (β3 or β5) versus GST alone (negative control). […]

mouse spleen cells = assay: In vitro binding of Fab phage clones to spleen cells by BRASIL; assay type: cell-based
Procedure: A singe cell suspension was prepared from two mouse spleens. The suspension was divided into five tubes and incubated on ice with 3×10^9 TU of Fab clones #2, #6, #10, #12 and 2×10^9 TU tet-phage. Phage bound to mouse spleen cells were recovered by BRASIL. 200 μl of log phase ER2537 E. coli was infected with the pellet and serial dilutions were plated on LB/carbenicillin and LB/tetracyclin plates for assessment of phage binding. Fd-tet was used as an internal control to normalize all the phage homing experiments.

mouse spleen = assay: In vivo spleen targeting of Fab phage clones by BRASIL; conditions: 5 minutes circulation, FIG. 5

GST-β1 integrin, sequence (P05556 752-798 limits assumed): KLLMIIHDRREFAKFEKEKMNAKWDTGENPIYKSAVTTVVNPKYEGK

Q: With “Annexin V: 36 kDa endogenous protein analog of the VISY peptide, ligand of β5 integrin cytoplasmic domain” as the molecule, how does the “binding of Annexin V to GST-β5 integrin” value (GST-β5 integrin; FIG. 20A) read?
A: Its value is “bound strongly”.

Q: What about the “binding of Annexin V to GST-β5 integrin” value (GST-β5 integrin; Tris-buffered saline (TBS)) of the same molecule?
A: The value was “Low binding”.

Q: What about the “binding of Annexin V to GST-β5 integrin” value (GST-β5 integrin; cytoplasmic buffer with or without added calcium (2 mM)) of the same molecule?
A: The value was “high binding”.

Q: And the “binding of Annexin V to GST-β1 integrin” value (GST-β1 integrin)?
A: The value was “did not bind”.

Q: And the “binding of Annexin V to GST-β3 integrin” value (GST-β3 integrin)?
A: The value was “did not bind”.

Q: For “VISY-penetratin chimera: chimeric peptide containing VISY peptide (VVISYSMPD) linked to penetratin (antennapedia), plus a biotin moiety (VVISYSMPDRQIKIWFQNRRMKWKK; also: plus a biotin moiety, site not given here)”, which “induction of apoptosis (PI staining)” value (HUVEC cells) is on record?
A: The value was “induction of apoptosis”.

Q: And the “induction of apoptosis (chromatin fragmentation)” value (HUVEC)?
A: The value was “induction of apoptosis”.

Q: With TMLRYFMFP as the molecule, how does the Phos/Unphos ([1]; phage phosphorylated by Fyn versus unphosphorylated phage) read?
A: The Phos/Unphos was 4.2.

Q: For TLRKYFHSS, which “β3 or β5/GST” value ([1]; X4YX4 library phosphorylated with Fyn) is on record?
A: Its value is 5.6.

Q: How did the “β3/BSA Ratio” value ([2]; colonies from β3-GST-coated wells divided by those from BSA) turn out when AGWLYMSWK was run?
A: The value was 2.4.

Q: What about the “β3/GST Ratio” value ([2]; colonies from β3-GST-coated wells divided by those from GST) of the same molecule?
A: The value was 1.8.

B1: Fab clone #6: chicken Fab phage clone from α-spleen library, localized in mouse spleen (protein)
scFv: CQPAMAAVTLDESGGGLQTPGGTLSLVCKASGISIGYGMNWVRQAPGKGLEYVASISGDGNFAHYGAPVKGRATISRDDGQNTVTLQLNNLR
modifications: Fab format
Q: Which “binding to mouse spleen cells compared to Fd-tet insertless control phage” value (mouse spleen cells; FIG. 3) does the source give for B1 here?
A: The value was “lowest degree of differential binding”.

Q: What about the “binding to mouse spleen cells, direct comparison with NPC-3TT” value (mouse spleen cells; FIG. 4) of the same molecule?
A: The value was “only slightly higher than the binding of phage NPC-3TT”.

Q: What about the “binding to spleen compared to Fd-tet phage” value (mouse spleen) of the same molecule?
A: Its value is “many-fold increased binding to spleen”.
